Data taken from patent US20160333092A1 (ORDER MADE MEDICAL RESEARCH, published 2016).

T1: human SLC6A6 (solute carrier family 6 (neurotransmitter transporter, taurine), member 6) (human, UniProt P31641 1-620)
T1 construct: also called native SLC6A6; SLC6A6 on the cell membrane
T1 sequence: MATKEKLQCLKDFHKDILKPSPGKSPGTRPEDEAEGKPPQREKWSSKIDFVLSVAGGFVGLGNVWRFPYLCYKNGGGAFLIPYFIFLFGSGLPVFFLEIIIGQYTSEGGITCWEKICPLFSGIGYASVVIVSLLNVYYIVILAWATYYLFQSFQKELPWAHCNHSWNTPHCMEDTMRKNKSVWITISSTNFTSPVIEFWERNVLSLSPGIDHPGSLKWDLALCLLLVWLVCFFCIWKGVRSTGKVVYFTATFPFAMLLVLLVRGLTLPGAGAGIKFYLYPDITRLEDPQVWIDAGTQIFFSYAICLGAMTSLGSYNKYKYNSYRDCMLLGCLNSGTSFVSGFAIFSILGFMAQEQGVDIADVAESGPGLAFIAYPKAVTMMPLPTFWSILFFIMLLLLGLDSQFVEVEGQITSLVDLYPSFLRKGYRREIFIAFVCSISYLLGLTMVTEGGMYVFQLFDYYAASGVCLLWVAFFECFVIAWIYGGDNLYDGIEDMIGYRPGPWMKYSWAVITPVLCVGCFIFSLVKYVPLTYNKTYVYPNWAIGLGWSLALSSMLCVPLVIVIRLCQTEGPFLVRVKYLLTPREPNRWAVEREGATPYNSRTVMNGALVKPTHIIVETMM

T2: partial protein of the extracellular region of SLC6A6 (amino acid residues 143 to 216, E. coli recombinant) (human, UniProt P31641 143-216)
T2 construct: also called SLC6A6 partial protein; recombinant protein
T2 sequence: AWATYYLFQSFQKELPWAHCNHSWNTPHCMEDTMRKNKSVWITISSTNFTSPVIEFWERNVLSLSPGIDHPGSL


Assays:
[1] = biological target: T1, human SLC6A6 (solute carrier family 6 …); assay: immunocytological staining of formalin-fixed HT-29 and LoVo cells, antibody 10 ug/mL; compared with 4B9b and 5H12d
Experimental: (§1) Moreover, as controls for comparison purposes, the anti-SLC6A6 antibodies “4B9b” and “5H12d” disclosed in WO2012/029990 were also analyzed in the same manner. Hereinafter, antibodies produced by hybridoma cells are also represented by their respective clone numbers.
(§2) HT-29 and LoVo cells were cultured to reach 80% confluency and then seeded onto cover slips coated with Cellmatrix Type I-A (Nitta Gelatin Inc., Japan). After culture for 2 days, the cells were fixed with 10% neutral buffered formalin (WAKO). After being treated with 0.3% (v/v) aqueous hydrogen peroxide for 20 minutes, the cover slips were washed three times with TBST and treated with TBST containing 5% (w/v) skimmed milk, followed by addition of the antibodies purified in (7) above at a concentration of 10 μg/mL and reaction at 4° C. for 16 hours. […] After washing three times with TBST, the cover slips were sealed with Mounting Medium (Vector Shield).

[2] = biological target: T2, partial protein of the extracellular …; assay: ELISA on coated recombinant SLC6A6 partial protein (residues 143-216), HRP-labelled secondary antibody
Experimental: The recombinant protein obtained in (4) above (10 μg/ml) was dispensed in 100 μL volumes into MaxiSorp 96-well plates (Nunc) and adsorbed onto the plates at room temperature for 1 hour. After adsorption, each well was washed with TBS-T (TBS-T (25 mM Tris, 150 mM NaCl, 0.05% (v/v) Tween 20, pH 7.4) and charged with skimmed milk (GIBCO), which had been diluted to 5% with TBS-T, to conduct blocking for 30 minutes at room temperature. After each well was washed three times with 200 μL of TBS-T, mouse plasma samples collected from the tail vein were each diluted 1/2000-fold with TBS-T and added to the ELISA plates in a volume of 100 μL per well, followed by reaction at room temperature for 1 hour. Each well was washed three times with 200 μL of TBS-T.
The thus obtained monoclonal antibody-producing hybridoma cells were cultured in ten 10 cm dishes to reach 90% confluency and then cultured for 10 days in a 1:1 mixture of HT medium (Invitrogen) and EX CELL Sp2/0 (Nichirei Bioscience Inc., Japan). The culture supernatants were collected and purified with a Protein G column. The Protein G column (GE Healthcare) was used in a volume of 0.5 mL relative to 100 mL of the culture supernatant. The cultured solutions were each passed at a flow rate of 1 to 3 ml/min through the Protein G column which had been equilibrated with PBS(−), followed by washing with 6 mL of washing buffer (25 mM Tris-HCl (pH 7.4), 140 mM NaCl, 10 mM KCl). Then, antibody proteins were eluted with 1 mL of elution buffer (0.1 M glycine-HCl (pH 2.5) or 0.1 M glycine-HCl (pH 3.0)) and neutralized with 0.5 M Tris-HCl (pH 7.4) to be within pH 7.0 to 7.4. The antibodies were concentrated with Amicon Ultra 30 (Millipore) and the buffer was replaced with PBS(−).

[3] = biological target: T1, human SLC6A6 (solute carrier family 6 …); assay: binding activity on HCT15 and HT-29 cells, antibody 10 ug/mL, anti-human IgG-HRP secondary antibody
Experimental: In this case, the antibody concentration was set to 10 μg/mL.

[4] = biological target: T1, human SLC6A6 (solute carrier family 6 …); assay: immunocytological staining of formalin-fixed HT-29 and LoVo cells, antibody 10 ug/mL
Experimental: as §1, §2

binding result [1] | binding result [2] | binding result [3] | binding result [4] | Binder
binds | binds | – | – | monoclonal antibody produced from mouse-mouse hybridoma 205 (antibody, V domains shown) VH: VKLQQSGPELVKPGASVKMSCKASGYTFTSYVMHWVKQKPGQGLEWIGYINPYNDGTKYNEKFKGKATLTSDKSSSTAYMELSSLTSEDSAVYYCARRKAWFAYWGQGTLVTVSA VL: DIQMTQSPASQSASLGESVTITCLASQTIGTWLAWYQQKPGKSPQLLIYAATSLADGVPSRFSGSGSGTKFSFKISSLQAEDFVSYYCQQLYSTPLTFGGGTKLEIK
binds | binds | – | – | monoclonal antibody produced from mouse-mouse hybridoma 303 (antibody, V domains shown) VH: VQLQQPGAEFVKPGTSVKLSCKASGYNFTRYWINWVKLRPGQGLEWIGNIYPATNGINYNEKFKSKATLTVDTFSSTAYMQLSSLASEDSGLYYCARCKTMLSRCAWFPYWGQGTLVTVSA VL: DIQMTQTTSSLSASLGDRVTINCRASQDISNYLNWYQQKPDGTVKLLIYDTSRLHSRVPSRFSGSGSGTDYSLTISNLEQEDIATYFCQQGNMLPWTFGGGTKLEIK
– | binds | – | binds | monoclonal antibody produced from mouse-mouse hybridoma 422 (antibody, V domains shown, also called 422 antibody; antibody clone 422) VH: VQLQQSGPEVVKPGPSLRMSCKASGYFFTGNSMNWVKKTHGRSLEWIGLIDLSNGETRFNQKFKGKATLTVDKSSGTAYMELLNLTSEDSAVYYCASRSAMIMPCFSHWGQGTLVTVSA VL: DIVMTQSHNFMSTSIGDRVNITCKASQDVATAVAWFQQKPGQSPKLLIYWTSTRHTGVPDRFTGSGYGTDFTLTISHVQSEDLADYFCQQYDTYPYTFGGGTKLEIK

Second part, the binder before the results:

Binder | binding result [1] | binding result [2] | binding result [3] | binding result [4]
monoclonal antibody produced from mouse-mouse hybridoma 419 (antibody, V domains shown) VH: IQLQQSGPELVKPGASVKVSCKAFGYAFTRHNMYWVKQRHGKCLEWIGYIDPFNGGTSYNQKFKGKATLTVDKSSSTAYMHLNSLTSEDSAVYYCARVYGNYAWFAYWGQGTLVTVSA VL: DIVMTQSHKFMSTSVGDRVSITCKASQDVSTAVAWYQQIPGQSPKLLIYSSSYRYTGVPDRFTGSGSGTDFTFTISSVQAEDLAVYYCQQHYNTPWTFGGGTKLEIK | binds | binds | – | –
human-mouse chimeric 205 antibody (antibody, human IgG1, kappa, V domains shown, Human IgG1 / human kappa constant regions) VH: QVKLQQSGPELVKPGASVKMSCKASGYTFTSYVMHWVKQKPGQGLEWIGYINPYNDGTKYNEKFKGKATLTSDKSSSTAYMELSSLTSEDSAVYYCARRKAWFAYWGQGTLVTVSA VL: DIQMTQSPASQSASLGESVTITCLASQTIGTWLAWYQQKPGKSPQLLIYAATSLADGVPSRFSGSGSGTKFSFKISSLQAEDFVSYYCQQLYSTPLTFGGGTKLEIKR | – | – | binds | –
